In IntAct's records for PubMed 22792074:

B1: Fanconi anemia group J protein (Homo sapiens), Q9BX63 (parent)
chain: MSSMWSEYTIGGVKIYFPYKAYPSQLAMMNSILRGLNSKQHCLLESPTGSGKSLALLCSALAWQQSLSGKPADEGVSEKAEVQLSCCCACHSKDFTNNDMNQGTSRHFNYPSTPPSERNGTSSTCQDSPEKTTLAAKLSAKKQASIYRDENDDFQVEKKRIRPLETTQQIRKRHCFGTEVHNLDAKVDSGKTVKLNSPLEKINSFSPQKPPGHCSRCCCSTKQGNSQESSNTIKKDHTGKSKIPKIYFGTRTHKQIAQITRELRRTAYSGVPMTILSSRDHTCVHPEVVGNFNRNEKCMELLDGKNGKSCYFYHGVHKISDQHTLQTFQGMCKAWDIEELVSLGKKLKACPYYTARELIQDADIIFCPYNYLLDAQIRESMDLNLKEQVVILDEAHNIEDCARESASYSVTEVQLRFARDELDSMVNNNIRKKDHEPLRAVCCSLINWLEANAEYLVERDYESACKIWSGNEMLLTLHKMGITTATFPILQGHFSAVLQKEEKISPIYGKEEAREVPVISASTQIMLKGLFMVLDYLFRQNSRFADDYKIAIQQTYSWTNQIDISDKNGLLVLPKNKKRSRQKTAVHVLNFWCLNPAVAFSDINGKVQTIVLTSGTLSPMKSFSSELGVTFTIQLEANHIIKNSQVWVGTIGSGPKGRNLCATFQNTETFEFQDEVGALLLSVCQTVSQGILCFLPSYKLLEKLKERWLSTGLWHNLELVKTVIVEPQGGEKTNFDELLQVYYDAIKYKGEKDGALLVAVCRGKVSEGLDFSDDNARAVITIGIPFPNVKDLQVELKRQYNDHHSKLRGLLPGRQWYEIQAYRALNQALGRCIRHRNDWGALILVDDRFRNNPSRYISGLSKWVRQQIQHHSTFESALESLAEFSKKHQKVLNVSIKDRTNIQDNESTLEVTSLKYSTSPYLLEAASHLSPENFVEDEAKICVQELQCPKIITKNSPLPSSIISRKEKNDPVFLEEAGKAEKIVISRSTSPTFNKQTKRVSWSSFNSLGQYFTGKIPKATPELGSSENSASSPPRFKTEKMESKTVLPFTDKCESSNLTVNTSFGSCPQSETIISSLKIDATLTRKNHSEHPLCSEEALDPDIELSLVSEEDKQSTSNRDFETEAEDESIYFTPELYDPEDTDEEKNDLAETDRGNRLANNSDCILAKDLFEIRTIKEVDSAREVKAEDCIDTKLNGILHIEESKIDDIDGNVKTTWINELELGKTHEIEIKNFKPSPSKNKGMFPGFK

Variants of: B1
Settings: with brca1_human BRCA1, P38398
brca1_human BRCA1, P38398, sequence (P38398 whole entry, looked up): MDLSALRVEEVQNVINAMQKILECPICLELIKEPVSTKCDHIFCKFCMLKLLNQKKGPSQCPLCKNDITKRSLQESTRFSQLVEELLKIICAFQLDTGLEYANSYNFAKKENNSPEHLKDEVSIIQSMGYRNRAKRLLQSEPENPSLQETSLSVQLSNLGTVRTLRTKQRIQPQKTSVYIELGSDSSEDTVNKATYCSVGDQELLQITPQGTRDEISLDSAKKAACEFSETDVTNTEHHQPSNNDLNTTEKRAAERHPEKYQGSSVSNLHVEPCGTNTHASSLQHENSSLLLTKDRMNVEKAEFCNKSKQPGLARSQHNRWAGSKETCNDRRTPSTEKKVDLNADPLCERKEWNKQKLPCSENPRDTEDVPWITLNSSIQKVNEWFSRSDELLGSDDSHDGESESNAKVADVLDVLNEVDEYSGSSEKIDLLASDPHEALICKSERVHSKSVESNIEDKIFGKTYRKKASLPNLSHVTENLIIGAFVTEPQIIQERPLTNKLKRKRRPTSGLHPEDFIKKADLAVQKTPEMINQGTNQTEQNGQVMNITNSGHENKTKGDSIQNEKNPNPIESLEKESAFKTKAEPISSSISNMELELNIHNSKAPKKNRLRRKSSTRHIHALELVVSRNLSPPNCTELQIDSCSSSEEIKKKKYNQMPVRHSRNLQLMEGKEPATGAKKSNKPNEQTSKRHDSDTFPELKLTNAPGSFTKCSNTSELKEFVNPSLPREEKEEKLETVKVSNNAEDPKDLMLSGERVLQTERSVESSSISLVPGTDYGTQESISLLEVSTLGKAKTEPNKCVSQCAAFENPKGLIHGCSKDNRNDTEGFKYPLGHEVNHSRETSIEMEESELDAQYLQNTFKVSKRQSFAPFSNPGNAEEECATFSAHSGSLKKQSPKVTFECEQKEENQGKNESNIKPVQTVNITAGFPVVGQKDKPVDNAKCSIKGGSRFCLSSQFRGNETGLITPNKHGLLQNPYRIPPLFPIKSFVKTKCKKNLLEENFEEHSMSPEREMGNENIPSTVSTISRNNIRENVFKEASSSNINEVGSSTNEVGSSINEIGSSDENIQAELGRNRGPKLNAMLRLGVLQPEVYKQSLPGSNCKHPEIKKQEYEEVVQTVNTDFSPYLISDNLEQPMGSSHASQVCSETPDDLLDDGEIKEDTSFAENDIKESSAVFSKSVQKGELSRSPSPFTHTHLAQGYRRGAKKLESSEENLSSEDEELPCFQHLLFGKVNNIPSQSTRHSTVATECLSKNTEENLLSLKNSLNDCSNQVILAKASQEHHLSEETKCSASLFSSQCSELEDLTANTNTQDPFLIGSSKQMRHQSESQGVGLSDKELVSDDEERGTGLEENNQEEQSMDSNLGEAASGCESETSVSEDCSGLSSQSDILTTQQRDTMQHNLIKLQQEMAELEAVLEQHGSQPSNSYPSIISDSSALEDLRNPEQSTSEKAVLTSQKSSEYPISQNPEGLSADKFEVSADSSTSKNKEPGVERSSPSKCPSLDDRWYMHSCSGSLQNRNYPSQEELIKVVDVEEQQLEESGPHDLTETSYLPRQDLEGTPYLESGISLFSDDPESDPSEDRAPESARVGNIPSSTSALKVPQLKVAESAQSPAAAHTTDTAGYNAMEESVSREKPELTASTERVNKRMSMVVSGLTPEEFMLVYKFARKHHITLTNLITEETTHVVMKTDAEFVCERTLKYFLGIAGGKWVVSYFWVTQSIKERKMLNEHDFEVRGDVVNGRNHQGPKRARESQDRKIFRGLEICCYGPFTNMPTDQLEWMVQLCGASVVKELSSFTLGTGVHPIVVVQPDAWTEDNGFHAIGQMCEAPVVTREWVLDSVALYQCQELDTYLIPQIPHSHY

| Variant | effect of a mutation on the interaction |
| --- | --- |
| K1249Q | with no effect |
| K1249R | with no effect |
